Drawing on US20200181261A1 (Bayer, published 2020), this text covers EC50, binding result and Kd for one molecule.

In test [1] the target is T1, Macaca fascicularis CEACAM6, extracellular (mature form), obtained by Factor Xa cleavage of TPP-2443 (Macaca fascicularis).
T1 construct: used biotinylated in some assays; also called APP-319; Cynomolgus CEACAM6
T1 chain: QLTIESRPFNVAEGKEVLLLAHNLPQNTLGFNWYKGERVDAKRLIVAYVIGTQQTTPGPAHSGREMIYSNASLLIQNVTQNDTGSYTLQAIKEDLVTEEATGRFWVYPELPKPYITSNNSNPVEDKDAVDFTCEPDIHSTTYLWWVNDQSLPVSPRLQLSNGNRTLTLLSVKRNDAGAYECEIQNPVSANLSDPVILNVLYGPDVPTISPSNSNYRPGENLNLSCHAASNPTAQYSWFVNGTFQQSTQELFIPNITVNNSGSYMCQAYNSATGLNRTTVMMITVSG
Kind of test: ELISA, antigen coated. On the procedure: (§1) ELISAs were used to characterize the binding of antibodies to various CEACAM paralogs and orthologs. Black 384-well plates were coated with […] of various CEACAM protein preparations at 2 μg/ml in coating buffer (Candor) for 1 h at 37° C. After one wash with PBS/0.05% Tween-20, wells were blocked with 100% Smart Block (Candor) for one hour at 37° C. After three washes with PBS/0.05% Tween-20, dilution series of the antibodies in PBS/0.05% Tween-20/10% Smart Block ranging from 2 μg/ml to 2 ng/ml were added and the plates were incubated for 1 h at room temperature. After three washes with PBS/0.05% Tween-20, an appropriate secondary antibody was added. For detection of proteins with a human Fc such as TPP-1173, an anti-human IgG HRP (Sigma A0170) was used at 1:10.000 dilution. For detection of proteins with a mouse Fc such as TPP-1744 an anti-mouse IgG HRP (ThermoScientific 31432) was used at 1:10.000 dilution. PBS/0.05% Tween-20/10% Smart Block was used as dilution buffer. The plates were incubated for 1 hour at room temperature. After three washes, the plates were developed with Amplex Red (Life Technologies) and fluorescence was read at an emission wavelength of 590 nm. GraphPad Prism 6.0 software was used to calculate EC₅₀ values using four-parameter non-linear curve fit. […]
On the technique in general: In an ELISA, binding on a coated surface is turned into a signal by an enzyme label.

Test [2] deals with T2, human CEACAM5, extracellular (mature form), R&D Systems 4128-CM (human, UniProt P06731 35-685).
T2 construct: used biotinylated in some assays; also called TPP-1438; hC5
T2 sequence: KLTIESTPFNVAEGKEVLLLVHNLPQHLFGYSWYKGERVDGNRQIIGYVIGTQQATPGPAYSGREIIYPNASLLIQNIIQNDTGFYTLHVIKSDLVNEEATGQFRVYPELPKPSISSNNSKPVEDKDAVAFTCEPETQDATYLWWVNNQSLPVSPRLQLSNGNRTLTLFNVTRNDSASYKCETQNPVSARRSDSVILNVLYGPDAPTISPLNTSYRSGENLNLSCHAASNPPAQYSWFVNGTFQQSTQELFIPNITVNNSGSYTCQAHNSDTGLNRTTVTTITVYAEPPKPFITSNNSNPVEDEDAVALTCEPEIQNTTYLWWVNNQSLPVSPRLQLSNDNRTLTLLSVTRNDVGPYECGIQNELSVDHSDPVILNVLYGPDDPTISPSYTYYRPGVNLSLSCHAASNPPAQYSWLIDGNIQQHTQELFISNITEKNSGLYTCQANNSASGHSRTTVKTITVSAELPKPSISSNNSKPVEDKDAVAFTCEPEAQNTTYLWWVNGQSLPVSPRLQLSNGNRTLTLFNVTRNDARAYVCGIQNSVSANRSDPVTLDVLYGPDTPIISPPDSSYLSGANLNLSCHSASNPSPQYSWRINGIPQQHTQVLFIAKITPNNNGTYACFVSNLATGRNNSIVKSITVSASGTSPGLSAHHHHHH
Kind of test: ELISA, antigen coated. The protocol: as §1

In test [3] the target is T3, Human CEACAM6-Domain 1-His (expressed in E. coli), wild-type (human).
T3 construct: entry includes the His tag; also called hDOM1
T3 chain: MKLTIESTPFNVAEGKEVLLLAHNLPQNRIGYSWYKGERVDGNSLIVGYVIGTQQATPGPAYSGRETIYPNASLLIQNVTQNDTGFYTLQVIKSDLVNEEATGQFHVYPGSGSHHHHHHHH
Kind of test: domain mapping ELISA, antigen coated. On the procedure:
(§2) For ELISA analysis, the Fc-fused domain chimeras and the single domain 1 were coated on Nunc MaxiSorb plates and blocked with SmartBlock solution. After incubation with an IgG-concentration series (1 nM-1000 nM) for 1 h, plates were washed with PBS/T. Analysis of the bound IgGs to the CEACAM6 domain constructs was achieved over detection via Anti-Human IgG (Fab specific)-Peroxidase antibody (A0293, Sigma). Fluorescence detection was performed with AmplexRed (A12222, Invitrogen) following standard protocols.

Test [4] has as its target T4, Human CEACAM6-Dom2-MacMul-Xa-Fc-His (human, Domain 2 from Macaca mulatta).
T4 construct: domain chimera fused to Xa-Fc-His; also called TPP-1792; DOM2 MM
As to the kind of experiment: domain mapping ELISA, antigen coated. The protocol: as §2

Test [5] deals with T5, Macaca mulatta CEACAM6-Xa-Fc-His (Macaca mulatta).
T5 construct: extracellular (mature form) fused to Factor Xa site, human IgG1 Fc and His tag; the entry is the whole fusion; also called TPP-1306; MM WT
As to the kind of experiment: SPR, antibody captured, antigen as analyte. On the procedure:
Surface plasmon resonance (SPR) experiments for quantitative binding analyses were performed either using a Biacore T100, Biacore T200 or a Biacore 4000 instrument (GE Healthcare Biacore, Inc.) equipped with Series S Sensor Chips CM5 (GE Healthcare Biacore, Inc.). Binding assays were carried out at 25° C. with assay buffer HBS-EP+(10 mM HEPES pH 7.4, 150 mM NaCl, 3 mM EDTA, 0.05% Surfactant P20). Antibodies were captured with an anti-hIgG capture antibody covalently immobilized to the chip surface via amine coupling chemistry. Reagents for amine coupling (1-ethyl-3-(3-dimethylaminopropyl) carbodiimide hydrochloride (EDC), N-hydroxysuccinimide (NHS), ethanolamine-HCl pH 8.5) were used from the Amine Coupling Kit (GE Healthcare, product code BR-1000-50). Anti-hIgG, anti-mIgG capture antibodies and immobilization buffer (10 mM sodium acetate pH 5.0) were used from the Human Antibody Capture Kit (GE Healthcare, BR-1008-39) and the Mouse Antibody Capture Kit (GE Healthcare, BR-1008-38), respectively. The sensor chip surface was activated with a freshly prepared solution of 0.2 M EDC and 0.05 M NHS passed over the chip surface for 420 s at a flow rate of 10 μl/min, followed by an injection of anti-hIgG or anti-mIgG capture antibody (dissolved to 25 μg/ml in immobilization buffer) for 180 s at a flow rate of […]. Excess of activated groups were blocked with a 1 molar solution of ethanolamine injected at a flow rate of 10 μl/min for 420 s.
CEACAM antigens were used as analyte to determine KD values. Antibodies were captured for 20 s at a flow rate of 10 μl/min prior to each analyte injection.
Obtained sensorgrams were double-referenced, i.e. in-line reference cell correction followed by buffer sample subtraction.
Background: Surface plasmon resonance follows binding to a sensor surface in real time, without labels.

B1: Neo201 (human IgG1) (antibody, V domains shown)
VH: QVQLVQSGAEVKKPGASVKVSCKASGYTFTDYAMHWVRQAPGQRLEWMGLISTYSGDTKYNQNFQGRVTMTVDKSASTAYMELSSLRSEDTAVYYCARGDYSGSRYWFAYWGQGTLVTVSS
VL: DIQMTQSPSSLSASVGDRVTITCQASENIYGALNWYQRKPGKSPKLLIYGASNLATGMPSRFSGSGSGTDYTFTISSLQPEDIATYYCQQVLSSPYTFGGGTKLEIKR
notes: based on US20130189268; also called TPP-1173; Neo201-hIgG1
As for B1, the results for the EC50 in test [1] and in test [2] were 1.35 nM and 0.09 nM, respectively. The binding result is reported as “no binding (tested: 1000 nM IgG)” in test [3] and “binds” in test [4]. Moreover, in test [5], binding was put at a Kd of 23 nM.

As a reminder, the EC50 is the concentration that produces a half-maximal response. High values mean lower potency in that assay, low ones higher potency in that assay. Usually Kd stands for the constant that tells how readily two partners part at equilibrium. Read a low Kd as a tighter complex.
